Test results taken from article PMC6908968 (Cell, 2019).

B1: mAb 5.1.10B3 (antibody, V domains shown)
VH: EVQLVESGGGLVQPGGSLRLSCAASGFTFRSYDMHWVRQATGKGLEWVSAIGTAGDTYYPGSVKGRFTISRENAKNSLYLQMNSLRAEDTAVYYCARVRFGDTAVDYWGQGTLVTVSS
VL: DIQMTQSPSSLSASVGDRVTITCRASQSISSFLNWHQQKPGKAPKLLIYAASSLQSGVPSRFSGSGSGTDFTLTISSLQPEDFAIYYCQQSYISPFTFGPGTKVDIK
B2: mAb 2.1.6C11 (antibody, V domains shown)
VH: GAEVKKPGASVKVSCKASGYTFTTYDINWVRQATGQGLEWMGWMNPNSGNTGYAQKFQGRVTMTRNTSISTAYMELRSLRSEDTAVYYCAPGVTFWGQGTLVTVSS
VL: PSSLSAPVGDRVTITCRASQGISNSLAWFQQKPGKAPKSLIYAASSLQSGVPSNFSGSGSGTDFTLTISSLQPEDFATYYCQQYNSYPWTFGQGTKVEIK

Molecular target: EBOV GP ectodomain residues 1-636 (GPec) (Zaire ebolavirus, strain  …, UniProt Q05320)
Experiment: ELISA
Details: both partners purified

Chain of EBOV GP ectodomain residues 1-636 (GPec) (Q05320 33-636): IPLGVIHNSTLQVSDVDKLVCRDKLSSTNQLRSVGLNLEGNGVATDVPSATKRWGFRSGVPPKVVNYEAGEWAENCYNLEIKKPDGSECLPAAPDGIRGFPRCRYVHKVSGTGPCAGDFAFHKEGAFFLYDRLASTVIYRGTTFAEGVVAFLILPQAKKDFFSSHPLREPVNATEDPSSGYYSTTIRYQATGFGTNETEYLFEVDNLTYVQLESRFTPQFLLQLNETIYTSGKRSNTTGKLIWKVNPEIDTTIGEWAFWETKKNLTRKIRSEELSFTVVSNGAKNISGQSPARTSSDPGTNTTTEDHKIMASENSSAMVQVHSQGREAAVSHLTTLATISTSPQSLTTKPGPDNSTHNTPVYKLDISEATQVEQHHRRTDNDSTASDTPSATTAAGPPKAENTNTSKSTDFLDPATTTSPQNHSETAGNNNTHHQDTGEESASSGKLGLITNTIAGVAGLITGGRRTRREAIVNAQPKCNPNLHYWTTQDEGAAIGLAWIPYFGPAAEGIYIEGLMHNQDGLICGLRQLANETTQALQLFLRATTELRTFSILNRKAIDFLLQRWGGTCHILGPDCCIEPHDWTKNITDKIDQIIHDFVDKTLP

Row | Binder | binding result
1 | B1 | binds
2 | B2 | binds
